Holding throughout (assay): cell-based or functional assay
Assay [1] addresses human TNFα (soluble) (human) (UniProt P01375).
Assay [2] deals with human non-cleavable membrane bound TNFα on CHO cells (human) (UniProt P01375).
For assay [3], the target named is human IL-23 (human) (UniProt Q9NPF7).
Sequence of human IL-23 (human) (Q9NPF7 20-189, chain 1 of 2): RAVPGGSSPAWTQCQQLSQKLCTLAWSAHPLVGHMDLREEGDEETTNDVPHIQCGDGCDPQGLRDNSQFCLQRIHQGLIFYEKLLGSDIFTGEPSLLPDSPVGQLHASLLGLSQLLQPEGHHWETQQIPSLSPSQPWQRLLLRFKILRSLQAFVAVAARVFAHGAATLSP
Sequence of human IL-23 (human) (P29460 23-328, chain 2 of 2, further chain): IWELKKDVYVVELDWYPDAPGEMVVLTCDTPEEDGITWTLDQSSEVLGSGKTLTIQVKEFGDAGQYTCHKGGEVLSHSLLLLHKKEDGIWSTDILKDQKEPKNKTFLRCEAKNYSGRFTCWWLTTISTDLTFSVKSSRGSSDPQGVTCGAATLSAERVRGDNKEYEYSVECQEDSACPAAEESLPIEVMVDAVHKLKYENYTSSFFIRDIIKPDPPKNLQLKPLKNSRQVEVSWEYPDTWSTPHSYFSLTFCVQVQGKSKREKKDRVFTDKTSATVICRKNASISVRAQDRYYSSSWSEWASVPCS

Sequence of human TNFα (soluble) (human) (P01375 77-233 limits assumed): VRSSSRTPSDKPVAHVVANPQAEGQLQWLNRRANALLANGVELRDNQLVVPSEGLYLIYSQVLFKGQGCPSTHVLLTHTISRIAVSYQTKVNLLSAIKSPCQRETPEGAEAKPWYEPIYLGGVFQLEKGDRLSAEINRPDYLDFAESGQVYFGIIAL
Sequence of human non-cleavable membrane bound TNFα on CHO cells (human) (P01375 whole entry): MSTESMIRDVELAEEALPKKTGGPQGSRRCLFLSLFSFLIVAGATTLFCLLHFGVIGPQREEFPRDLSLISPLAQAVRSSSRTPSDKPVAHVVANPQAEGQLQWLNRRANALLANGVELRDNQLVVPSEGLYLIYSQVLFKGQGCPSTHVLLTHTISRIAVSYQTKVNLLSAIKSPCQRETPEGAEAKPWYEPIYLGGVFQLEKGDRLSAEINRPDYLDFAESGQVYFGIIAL

Substance “Adalimumab with IgG1 isotype (parental TNFα antibody)” returned a CXCL1 Level (pg/mL) in plasma of mice challenged with human TNFα in assay [1] of 633 pg/mL. This substance also gave an inhibition of killing of L929 cells by human non-cleavable membrane bound TNFα CHO cells (IC50, MTT assay) in assay [2] of 0.581 nM.

For human IgG1 isotype control antibody, the mIL22 Level (pg/mL) in plasma of mice challenged with human IL-23 in assay [3] was 132 pg/mL. For the same substance, the CXCL1 Level (pg/mL) in plasma of mice challenged with human TNFα in assay [1] was determined as 2420 pg/mL.

(Values after patent publication US20160122429A1.)
